Data on one molecule can be found in US20230064326A1, “OPTOGENETIC COMPOSITIONS COMPRISING A CBh PROMOTER SEQUENCE AND METHODS FOR USE” (Vedere Bio II, Inc., priority 2021, published 2023).

The data set relates to NHP retinas. In words: SNAP immunostaining to visualize SNAP-mGluR2 expression in NHP retinas. Format: in vivo, Cynomolgus macaques and African Green monkeys. As to conditions: non-human primates; central and peripheral retina.

B1: CBh promoter: promoter of SEQ ID NO: 1: CMV enhancer, chicken beta actin promoter and hybrid intron; in b245 driving SNAP-mGluR2 (nucleic acid)
DNA: CGTTACATAACTTACGGTAAATGGCCCGCCTGGCTGACCGCCCAACGACCCCCGCCCATTGACGTCAATAATGACGTATGTTCCCATAGTAACGCCAATAGGGACTTTCCATTGACGTCAATGGGTGGAGTATTTACGGTAAACTGCCCACTTGGCAGTACATCAAGTGTATCATATGCCAAGTACGCCCCCTATTGACGTCAATGACGGTAAATGGCCCGCCTGGCATTATGCCCAGTACATGACCTTATGGGACTTTCCTACTTGGCAGTACATCTACGTATTAGTCATCGCTATTACCATGGTCGAGGTGAGCCCCACGTTCTGCTTCACTCTCCCCATCTCCCCCCCCTCCCCACCCCCAATTTTGTATTTATTTATTTTTTAATTATTTTGTGCAGCGATGGGGGCGGGGGGGGGGGGGGGGCGCGCGCCAGGCGGGGCGGGGCGGGGCGAGGGGCGGGGCGGGGCGAGGCGGAGAGGTGCGGCGGCAGCCAATCAGAGCGGCGCGCTCCGAAAGTTTCCTTTTATGGCGAGGCGGCGGCGGCGGCGGCCCTATAAAAAGCGAAGCGCGCGGCGGGCGGGAGTCGCTGCGACGCTGCCTTCGCCCCGTGCCCCGCTCCGCCGCCGCCTCGCGCCGCCCGCCCCGGCTCTGACTGACCGCGTTACTCCCACAGGTGAGCGGGCGGGACGGCCCTTCTCCTCCGGGCTGTAATTAGCTGAGCAAGAGGTAAGGGTTTAAGGGATGGTTGGTTGGTGGGGTATTAATGTTTAATTACCTGGAGCACCTGCCTGAAATCACTTTTTTTCAG
modifications: misc_feature 1..812 CBH promoter sequence
notes: in b245 driving SNAP-mGluR2
In the case of B1, the “expression of a SNAP-mGluR2 transgene, promoter comparison (CBh vs synapsin)” value is “much more robust expression”.
